Experiments:
[1] = system: Wildtype, non-transformed Arabidopsis thaliana c.v. Columbia; test: Glyphosate response of non-transformed control Arabidopsis; type: in vivo; conditions: WT (non-transformed control), 14 days after application
Protocol: (§1) The Arabidopsis T1 transformants (from transformation with pDAB114286 or pDAB114287) were first selected from the background of untransformed seed using a glufosinate selection scheme. Three flats or 50,000 seed were analyzed for each T1 construct. The selected T1 plants were molecularly characterized (as described above) and events with a range of copy number were sprayed with various rates of commercial glyphosate.
(§2) Transgenic T1 Arabidopsis plants containing the dgt-28 transgene were sprayed with differing rates of glyphosate. Elevated rates were applied in this study to determine the relative levels of resistance (420, 840, 1,680 or 3,360 g ae/ha). The typical 1× field usage rate of glyphosate is 1120 g ae/ha. The response of these plants is presented in terms of % visual injury 2 weeks after treatment (WAT). The T1 Arabidopsis plants that were used in this study were of variable copy number for the dgt-28 transgene. The low copy dgt-28 T1 Arabidopsis plants were self-pollinated and used to produce T2 plants.
(§3) An arithmetic mean and standard deviation is presented for each construct used for Arabidopsis transformation. The range in individual response is also indicated in the last column for each rate and transformation. Wildtype, non-transformed Arabidopsis thaliana c.v. Columbia served as a glyphosate sensitive control.

[2] = system: dgt-28 transformed T1 Arabidopsis; test: Glyphosate tolerance of dgt-28 transformed T1 Arabidopsis; type: in vivo, Arabidopsis thaliana; conditions: 14 days after application
Protocol: as §1, §2, §3

[3] = 420 g ae/ha glyphosate postemergence
[4] = 840 g ae/ha glyphosate postemergence
[5] = 1680 g ae/ha glyphosate postemergence
[6] = 3360 g ae/ha glyphosate postemergence

Molecule | % Injury Analysis Ave [2, 3] [%] | % Injury Analysis Range (%) [2, 3] | % Injury Range (No. Replicates) 20-40% [2, 3] | % Injury Range (No. Replicates) <20% [2, 3] | % Injury Range (No. Replicates) >40% [2, 3] | % Injury Analysis Ave [2, 4] [%] | % Injury Analysis Range (%) [2, 4] | % Injury Range (No. Replicates) 20-40% [2, 4] | % Injury Range (No. Replicates) <20% [2, 4] | % Injury Range (No. Replicates) >40% [2, 4] | % Injury Analysis Ave [2, 5] [%] | % Injury Analysis Range (%) [2, 5] | % Injury Range (No. Replicates) 20-40% [2, 5] | % Injury Range (No. Replicates) <20% [2, 5] | % Injury Range (No. Replicates) >40% [2, 5] | % Injury Analysis Ave [2, 6] [%] | % Injury Analysis Range (%) [2, 6] | % Injury Range (No. Replicates) 20-40% [2, 6] | % Injury Range (No. Replicates) <20% [2, 6] | % Injury Range (No. Replicates) >40% [2, 6] | also measured
O=C(O)CNCP(=O)(O)O [glyphosate] |  |  |  |  |  |  |  |  |  |  |  |  |  |  |  |  |  |  |  |  | % Injury Analysis Ave ([1]; 420 g ae/ha postemergence): 100.0%; % Injury Analysis Range (%) ([1]; 420 g ae/ha postemergence): 100%; % Injury Range (No. Replicates) 20-40% ([1]; 420 g ae/ha postemergence): 0; % Injury Range (No. Replicates) <20% ([1]; 420 g ae/ha postemergence): 0; % Injury Range (No. Replicates) >40% ([1]; 420 g ae/ha postemergence): 4; % Injury Analysis Ave ([1]; 840 g ae/ha postemergence): 100.0%; % Injury Analysis Range (%) ([1]; 840 g ae/ha postemergence): 100%; % Injury Range (No. Replicates) 20-40% ([1]; 840 g ae/ha postemergence): 0; % Injury Range (No. Replicates) <20% ([1]; 840 g ae/ha postemergence): 0; % Injury Range (No. Replicates) >40% ([1]; 840 g ae/ha postemergence): 4; % Injury Analysis Ave ([1]; 1680 g ae/ha postemergence): 100.0%; % Injury Analysis Range (%) ([1]; 1680 g ae/ha postemergence): 100%; % Injury Range (No. Replicates) 20-40% ([1]; 1680 g ae/ha postemergence): 0; % Injury Range (No. Replicates) <20% ([1]; 1680 g ae/ha postemergence): 0; % Injury Range (No. Replicates) >40% ([1]; 1680 g ae/ha postemergence): 4; % Injury Analysis Ave ([1]; 3360 g ae/ha postemergence): 100.0%; % Injury Analysis Range (%) ([1]; 3360 g ae/ha postemergence): 100%; % Injury Range (No. Replicates) 20-40% ([1]; 3360 g ae/ha postemergence): 0; % Injury Range (No. Replicates) <20% ([1]; 3360 g ae/ha postemergence): 0; % Injury Range (No. Replicates) >40% ([1]; 3360 g ae/ha postemergence): 4
TraP26::dgt-28: TraP26-dgt28 fusion gene (SEQ ID NO:27) in construct pDAB114286, expressed in T1 Arabidopsis (protein, Trap26 DGT28 fusion coding sequence) MAQVSMIPNAIQAPCSISLSKSQAGKSVRKVSLKPNQHAAWGLRRSGMRVGNPEVVVSASARGMPALSLPGSKSITARALFLAAAADGVTTLVRPLRSDDTEGFAEGLVRLGYRVGRTPDTWQVDGRPQGPAVAEADVYCRDGATTARFLPTLAAAGHGTYRFDASPQMRRRPLLPLSRALRDLGVDLRHEEAEGHHPLTVRAAGVEGGEVTLDAGQSSQYLTALLLLGPLTRQGLRIRVTDLVSAPYVEITLAMMRAFGVEVAREGDVFVVPPGGYRATTYAIEPDASTASYFFAAAALTPGAEVTVPGLGTGALQGDLGFVDVLRRMGAEVSVGADATTVRGTGELRGLTANMRDISDTMPTLAAIAPFASAPVRIEDVANTRVKECDRLEACAENLRRLGVRVATGPDWIEIHPGPATGAQVTSYGDHRIVMSFAVTGLRVPGISFDDPGCVRKTFPGFHEAFAELRRGIGS | 0.0 | 0% | 0 | 4 | 0 | 0.0 | 0% | 0 | 4 | 0 | 10.0 | 10% | 0 | 4 | 0 | 16.3 | 15-20% | 1 | 3 | 0 | 
TraP27::dgt-28: TraP27-dgt28 fusion gene (SEQ ID NO:28) in construct pDAB114287, expressed in T1 Arabidopsis (protein, Trap27 DGT28 fusion coding sequence) MATFTRVCHTARKSFVSLSNSQANSPVSVRFLSLPMPAARPAVKSGVRLWGCRLSFKVSASARGMPALSLPGSKSITARALFLAAAADGVTTLVRPLRSDDTEGFAEGLVRLGYRVGRTPDTWQVDGRPQGPAVAEADVYCRDGATTARFLPTLAAAGHGTYRFDASPQMRRRPLLPLSRALRDLGVDLRHEEAEGHHPLTVRAAGVEGGEVTLDAGQSSQYLTALLLLGPLTRQGLRIRVTDLVSAPYVEITLAMMRAFGVEVAREGDVFVVPPGGYRATTYAIEPDASTASYFFAAAALTPGAEVTVPGLGTGALQGDLGFVDVLRRMGAEVSVGADATTVRGTGELRGLTANMRDISDTMPTLAAIAPFASAPVRIEDVANTRVKECDRLEACAENLRRLGVRVATGPDWIEIHPGPATGAQVTSYGDHRIVMSFAVTGLRVPGISFDDPGCVRKTFPGFHEAFAELRRGIGS | 19.0 | 10-30% | 1 | 3 | 0 | 15.8 | 10-20% | 1 | 3 | 0 | 18.8 | 15-20% | 3 | 1 | 0 | 25.0 | 25% | 4 | 0 | 0 | 
